In article PMC11965285:

Molecular target: Lyn kinase (mouse (endogenous in mouse brain)) (UniProt P25911)
Test: pull-down

Chain of UniProt P25911 (P25911 whole entry): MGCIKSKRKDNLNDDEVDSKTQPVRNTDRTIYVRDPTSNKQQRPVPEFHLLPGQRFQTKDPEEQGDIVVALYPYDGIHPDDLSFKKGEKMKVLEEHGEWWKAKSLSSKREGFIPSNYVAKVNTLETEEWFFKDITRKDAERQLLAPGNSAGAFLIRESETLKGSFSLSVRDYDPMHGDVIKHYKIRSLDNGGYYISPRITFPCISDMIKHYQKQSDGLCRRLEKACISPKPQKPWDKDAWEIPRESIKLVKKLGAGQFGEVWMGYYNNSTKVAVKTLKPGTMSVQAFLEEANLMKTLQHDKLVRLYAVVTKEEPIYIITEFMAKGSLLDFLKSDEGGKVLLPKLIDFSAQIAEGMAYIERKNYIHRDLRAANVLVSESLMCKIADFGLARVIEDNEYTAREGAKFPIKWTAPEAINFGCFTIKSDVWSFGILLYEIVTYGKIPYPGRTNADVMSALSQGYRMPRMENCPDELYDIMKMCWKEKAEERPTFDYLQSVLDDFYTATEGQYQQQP

## TLR4-Lyn interacting modulator (TLIM) protein (domain or fragment)
  IC50: 0.0179 µM
